The source of these data is article PMC6451337, “The Toxoplasma gondii dense granule protein TgGRA3 interacts with host Golgi and dysregulates anterograde transport” (Biology Open, 2019).

Data set [1] deals with the molecule itself. Nature of the data set: SEC; GRA3_(43-161) cleaved from GST with PreScission protease, Superdex 200 Increase 3.2/300 column, AKTA Micro FPLC; protein standards 12,000-200,000 for the standard curve.
Data set [2] deals with the molecule itself. Nature of the data set: native gel or EMSA; proteins cleaved from glutathione-Sepharose beads with PreScission protease in 25 mM Tris pH 8, 1 mM DTT, 0.5 mM PMSF, 1 mM EDTA; 10% Tris-glycine native gel, unheated against heated; Coomassie Blue stain and Western blot. On the technique in general: In EMSA bound probe runs differently from free probe, usually more slowly.

B1: GRA3_(43-161), cleaved from GST (domain or fragment, Toxoplasma gondii, UniProt B6KEU8 43-161, looked up)
chain: ADQPENHQALAEPVTGVGEAGVSPVNEAGESYSSATSGVQEATAPGAVLLDAIDAESDKVDNQAEGGERMKKVEEELSLLRRELYDRTDRPGLKRAVILSLATSAAIGGRMVSRTLRDN
notes: amplified from parasite cDNA; Cloned at the BamHI site of pGEX6-P3; also called TgGRA3 recombinant protein; source: E. coli BL21, purified on glutathione-Sepharose, cleaved with PreScission protease; not shown: GST, N-terminal, cleaved
Usually stoichiometry N stands for a count of units in the complex or per binding partner. In the case of B1, the “stoichiometry N” value in data set [1] worked out at 2.

B2: GRA3_HA-Δ43-71 (domain or fragment, Toxoplasma gondii, UniProt B6KEU8 72-161, looked up)
chain: ESYSSATSGVQEATAPGAVLLDAIDAESDKVDNQAEGGERMKKVEEELSLLRRELYDRTDRPGLKRAVILSLATSAAIGGRMVSRTLRDN
notes: also called GST-HA-Δ43-71, after cleavage; source: E. coli BL21, captured on glutathione-Sepharose beads, cleaved with PreScission protease; not shown: GST, N-terminal, cleaved; HA, N-terminal, kept
As for B2, the binding result in data set [2] is “binds”.
